Laboratory results as given in patent publication US20190345216A1, “SorCS PEPTIDES AND USES THEREOF” (AARHUS UNIVERSITET, priority 2015, published 2019).
Entries after “also recorded” stand apart in the source; their conditions may differ. Blank lines part the entries; values can stand above or below the molecule they belong to.

Legend:
[1] = system: Wild type and SorCS2−/− mice; assay: Marble burying test; assay type: in vivo, mouse; conditions: fluoxetine 20 mg/kg injected 1 hour before, 20 min test
Description: The SorCS2 knockout mouse has been back-crossed for ten generations into C57/BL6J. Behavioral studies were done with the backcrossed homozygous mice compared to the same C57/BL6J substrain that was used for backcrossing (Glerup, Olsen et al., 2014). In the presented experiments, all mice lines had been backcrossed for ten generations into C57/BL6Jbom (Taconic) and littermate controls were used for experiments. All experiments were approved by the Danish Animal Experiments Inspectorate under the Ministry of Justice (Permit 2011/561-119) and carried according to institutional and national guidelines. All animals were bred and housed at the Animal Facility at Aarhus University. Animals were housed in groups of up to five mice per plastic cage (42×25×15 cm) under pathogen-free conditions with a 12-hour light/12-hour dark schedule and fed standard chow (Altromin #1324) and water ad libitum. Cages were cleaned every week and supplied with bedding and nesting material, a wooden stick, and a metal tunnel. Behavioral experiments were carried out using 12-16 weeks old male mice during their light cycle between 9:00 a.m. to 5:00 p.m. […]
Wild type and SorCS2^−/− mice were injected with either saline only or saline containing 20 mg/ml (20 mg/kg) fluoxetine (trade name Prozac™). […] They were then left for 20 min and hereafter the number of marbles that were more than 50% buried in each cage was counted.

SorCS2 [2] = assay: Western blot of SorCS2 expression in hippocampus and cortex after fluoxetine; assay type: in vivo, mouse; conditions: wt mice, fluoxetine in water for 3 weeks
Description: 3 wild-type mice were given either normal tap water or tap water containing 0.8 mg/ml fluoxetine for 3 weeks with water-chance once a week. Hereafter, the mice were euthanized by cervical dislocation and the hippocampus and cortex was dissected out. The samples were lysed in lysis buffer containing protease and phosphatase inhibitors. The samples were then analysed by Western blotting to see if treatment with fluoxetine can increase SorCS2 levels.

SorCS2−/− neurons = assay: BDNF-mediated branching of SorCS2−/− neurons transfected with SorCS2 constructs; assay type: cell-based, mouse
Description: To study the role of SorCS2 in BDNF-mediated branching (FIG. 4B-G), SorCS2^−/− neurons were seeded at a density of 100.000 neurons pr coverslip in media containing the desired SorCS2 mutant together with GFP. After 6 hours, the medium was changed to normal neurobasal A medium containing either 1 nM BDNF or similar volume of sterile PBS. The neurons were incubated for 72 hrs at 37° C. and 5% CO2 before being fixed for 20 min in ice cold 4% PFA, before a three times 5 min washes in D-PBSPictures were taken using a confocal microscope and the branching patterns were analysed using Zen 2011 Image Processing (Carl Zeiss) as follows: The 1st, 2nd, 3rd and 4th order branching patterns of GFPpositive neurons were counted where 1st order branches were defined as neurites protruding from the cell soma and were only considered 1st order branches if the branch was longer than the diameter of the soma. 2nd order branches were defined as processes extending from the 1st order branch, and so forth. […]

TrkB = biological target: T1, TrkB (Homo sapiens, UniProt Q16620); assay: TrkB phosphorylation in transfected hSY5Y cells; assay type: cell-based; conditions: hSY5Y cells with SorCS2 and TrkB compared to only TrkB
T1 construct: expressed in transfected cells; host or cells: hSY5Y cells
Description: (§1) In FIG. 6 it is shown that SorCS2 is important for phosphorylation of the BDNF-receptor TrkB.hSY5Y cells were transfected with either SorCS2, TrkB or both (FIG. 6, panels A and B). Upon stimulation with BDNF a 2.5 fold increase in phosphorylation of TrkB was seen when SorCS2 was also present, compared to when only TrkB was present (FIG. 6, panel B). […] This indicates a critical role of SorCS2 in mediating the response to BDNF

hippocampal neurons [3] = assay: Dendritic branching of neurons in vitro upon BDNF; assay type: cell-based, mouse; conditions: 1 nM BDNF
Description: (§2) To determine dendritic branching of neurons in vitro, hippocampal neurons were isolated from PO mice and grown in culture at a density of 5000 neurons per coverslip. After 24 hours the medium was changed to medium containing either 1 nM of BDNF or same volume of sterile PBS. Hereafter, the cells were left in the incubator at 37° C. for 72 hours before being fixed in 4% PFA for 20 minutes at room temperature. To determine cell morphology, the neurons were stained against β-tubulin (β-tubulin mouse mAb chemicon MAB3408). Images were taken using a confocal microscope and the branching patterns were analysed using Zen 2011 Image Processing (Carl Zeiss) as follows: The 1st, 2nd, 3rd and 4th order branching patterns the neurons were counted where 1S^t order branches were defined as neurites protruding from the cell soma and were only considered 1st order branches if the branch was longer than the diameter of the soma. 2nd order branches were defined as processes extending from the 1st order branch, and so forth.
For studies on BDNF induced morphological changes of GABAergic interneurons, neurons from p3 WT and SorCS2^−/− pups were seeded at a density of 5.000 neurons per coverslip. The WT and SorCS2^−/− neurons were seeded in 1 mL Neurobasal-A Medium containing either 1 nM BDNF or similar volumes of sterile D-PBS. The neurons were incubated for 72 hrs at 37° C. and 5% CO2 before being fixed for 20 min in ice cold 4% PFA. After three 5 min washes in D-PBS, neurons were stained, against mouse anti-β-tubulin and rabbit anti-GABA. Pictures were taken using a confocal microscope and the branching patterns were analysed using Zen 2011 Image Processing (Carl Zeiss) as follows: The 1st, 2nd, 3rd and 4th order branching patterns the neurons were counted where 1st order branches were defined as neurites protruding from the cell soma and were only considered 1st order branches if the branch was longer than the diameter of the soma. 2nd order branches were defined as processes extending from the 1st order branch, and so forth.

hippocampal neurons [4] = assay: BDNF induced formation of inhibitory synapses and spine density in vitro; assay type: cell-based, mouse; conditions: 1 nM BDNF; for number of glutamatergic synapses/spines: 24 hours; for number of inhibitory synapses: 72 hrs
Description: For studies on BDNF induced formation of inhibitory synapses, neurons from p0 wild type (wt) and SorCS2^−/− pups were seeded at a density of 100.000 neurons per coverslip. After 7 days in vitro, the medium was changed to medium containing either 1 nM of BDNF or similar volumes of sterile D-PBS. Neurons were incubated for 72 hrs at 37° C. and 5% CO2 before being fixed for 20 min in ice cold 4% PFA. After three 5 min washes in D-PBS, the neurons were stained against gephyrin, an inhibitory marker, and co stained against Map2, a marker of the dendritic tree. Images were taken by confocal microscopy and analysed using Imaris software.
To determine spine density in vitro, hippocampal neurons were isolated at PO and grown in culture at a density of 100.000 neurons pr coverslip. After 7 days in vitro the neurons were transfected with a plasmid containing GFP using Lipofectamine LTX reagent (15338-100) using the suppliers protocol. At 13 days in vitro the medium was changed to medium containing either 1 nM or 0 nM BDNF. Hereafter the cells were left in the incubator at 37° C. for 24 hours before being fixed in 4% PFA for 20 minutes at room temperature. To determine spine density, confocal images were obtained and subsequently assessed using Imaris software.

wild type neurons = assay: Morphological (neurotrophic) response of wild type neurons to SorCS2 tail peptides; assay type: cell-based, mouse; conditions: wt neurons; 1 nM BDNF
Description: as §2
We next created peptides similar to the intracellular tail of SorCS2. The first peptide had similar sequence to wild type SorCS2 tail except the serines at position 1125, 1128 and 1130, which had been changed to aspartic acids. Furthermore a TAT sequence had been added to facilitate entry into the neurons (FIG. 11), denoted “Ppep”.

PLCy = PLCy phosphorylation in transfected hSY5Y cells; assay type: cell-based; conditions: hSY5Y cells with SorCS2 and TrkB compared to only TrkB
Description: as §1

SorCS2 [5] = assay: SorCS2 phosphorylation (32P labelling, immunoprecipitation, autoradiography); assay type: cell-based, mouse; conditions: wt neurons; 1 nM BDNF 10 minutes vs unstimulated
Description: For studies on SorCS2 phosphorylation (FIG. 4A), wt neurons were seeded at a density of 2.5 million pr 6-well. After five days in culture, the medium was changed to phosphate-free medium+0.4 mCi/ml of ^32P labelled phosphate and left for 4 hours 37° C. and 5% CO2. Hereafter, the neurons were washed once in phosphate-free medium and medium is added containing 1 nM BDNF or similar volume of sterile PBS. This is left on for 10 minutes before removing the media and adding lysis buffer containing protease- and phosphatase-inhibitors. From the samples, immunoprecipitation was carried out using antibodies against SorCS2. The samples were then analyzed by SDS-gel and subsequent autoradiography to evaluate the phosphorylation of SorCS2.

T1 sequence (Q16620 32-822, species assumed): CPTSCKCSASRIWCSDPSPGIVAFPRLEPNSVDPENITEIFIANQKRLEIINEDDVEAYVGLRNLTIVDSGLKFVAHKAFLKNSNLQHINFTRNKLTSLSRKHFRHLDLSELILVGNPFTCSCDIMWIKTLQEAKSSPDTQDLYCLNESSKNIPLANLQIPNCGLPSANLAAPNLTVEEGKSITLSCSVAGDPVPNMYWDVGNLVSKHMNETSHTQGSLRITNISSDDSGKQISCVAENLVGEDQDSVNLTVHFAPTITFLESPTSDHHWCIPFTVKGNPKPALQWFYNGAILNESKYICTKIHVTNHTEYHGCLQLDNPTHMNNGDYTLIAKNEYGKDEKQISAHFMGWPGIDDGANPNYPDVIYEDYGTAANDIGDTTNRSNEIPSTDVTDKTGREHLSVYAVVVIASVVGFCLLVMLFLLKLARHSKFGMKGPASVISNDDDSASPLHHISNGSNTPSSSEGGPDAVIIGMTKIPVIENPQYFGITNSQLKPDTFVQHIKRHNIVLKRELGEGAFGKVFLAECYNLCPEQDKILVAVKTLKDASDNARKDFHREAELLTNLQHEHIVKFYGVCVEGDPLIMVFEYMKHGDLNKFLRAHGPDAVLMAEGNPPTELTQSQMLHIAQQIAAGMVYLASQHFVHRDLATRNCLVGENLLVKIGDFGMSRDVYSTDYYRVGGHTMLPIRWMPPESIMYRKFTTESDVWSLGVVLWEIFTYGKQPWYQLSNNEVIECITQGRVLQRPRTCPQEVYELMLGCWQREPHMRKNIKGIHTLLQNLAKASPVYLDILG

Molecule: CNCCC(Oc1ccc(C(F)(F)F)cc1)c1ccccc1 (stereo not drawn) [fluoxetine]
number of marbles buried ([1]; SorCS2−/− mice): this effect was not observed; also recorded: this was not the case | number of marbles buried ([1]; wild type mice): calmed and buried less marbles | expression of SorCS2 (Western blot) (SorCS2 [2]; cortex): not in the cortex | expression of SorCS2 (Western blot) (SorCS2 [2]; hippocampus): increase

increase in phosphorylation of TrkB upon BDNF stimulation (TrkB): 2.5 fold
B1: BDNF: brain-derived neurotrophic factor, ligand of tyrosine kinase receptor TrkB (protein, UniProt P23560 19-247, looked up)
Neurotrophic factor BDNF …: APMKEANIRGQGGLAYPGVRTHGTLESVNGPKAGSRGLTSLADTFEHVIEELLDEDQKVRPNEENNKDADLYTSRVMLSSQVPLEPPLLFLLEEYKNYLDAANMSMRVRRHSDPARRGELSVCDSISEWVTAADKKTAVDMSGGTVTVLEKVPVSKGQLKQYFYETKCNPMGYTKEGCRGIDKRHWNSQCRTTQSYVRALTMDSKKRIGWRFIRIDTSCVCTLTIKRGR
neurite branching response to BDNF (SorCS2−/− neurons; SorCS2−/− neurons transfected with S1128A variant): lost | neurite branching response to BDNF (SorCS2−/− neurons; SorCS2−/− neurons transfected with S1130A variant): lost | neurite branching response to BDNF (SorCS2−/− neurons; SorCS2−/− neurons transfected with full length SorCS2, 1 nM BDNF): rescues the response; also recorded: able to rescue response | neurite branching response to BDNF (SorCS2−/− neurons; SorCS2−/− neurons transfected with full-length variant S1125A, S1128A and S1130A): diminished | neurite branching response to BDNF (SorCS2−/− neurons; SorCS2−/− neurons transfected with variant lacking the intracellular domain): no increase in neurite branching | neurite branching response to BDNF (SorCS2−/− neurons; SorCS2−/− neurons transfected with variant with deletion of 56 amino acids): lost | neurite branching response to BDNF (SorCS2−/− neurons; SorCS2−/− neurons transfected with variant with deletion of the last 21 amino acids): still rescued the phenotype | neurite branching response to BDNF (SorCS2−/− neurons; SorCS2−/− neurons transfected with variant with deletion of the last 35 amino acids): still rescued the phenotype | dendritic complexity (branching) (hippocampal neurons [3]; GABAergic interneurons lacking SorCS2, 72 hrs): non-responsive | dendritic complexity (branching) (hippocampal neurons [3]; glutamatergic neurons lacking SorCS2, 72 hours): not the case | dendritic complexity (branching) (hippocampal neurons [3]; wt GABAergic interneurons, 72 hrs): increase in complexity | dendritic complexity (branching) (hippocampal neurons [3]; wt glutamatergic neurons, 72 hours): increase in complexity | number of glutamatergic synapses/spines (hippocampal neurons [4]; neurons lacking SorCS2): not the case | number of inhibitory synapses (hippocampal neurons [4]; neurons lacking SorCS2): not the case | number of glutamatergic synapses/spines (hippocampal neurons [4]; wt neurons): increase | number of inhibitory synapses (hippocampal neurons [4]; wt neurons): increase | complexity of neurons compared to neurons without BDNF (FIG. 13) (wild type neurons): increased in complexity | phosphorylation of PLCy upon BDNF stimulation (PLCy): significant increase | phosphorylation of SorCS2 (SorCS2 [5]): increased phosphorylation
